Laboratory results reported in patent US20240400638A1, “COMBINATION OF RELAXIN AND VASOPRESSIN ANALOGUES FOR TREATMENT OF RENAL DISORDERS OR CONDITIONS” (River 2 Renal Corp., priority 2021, published 2024).
Numbered stars: 1 amine (or outer) side, 2 acyl side, 3 side chain; on linkers, the order of the positions; unused ones are H or OH. Square brackets hold non-standard residues; d marks the D form. Side chains are listed from the residue outwards. * marks the point of attachment. TTDS = 4-[3-[2-[2-(3-aminopropoxy)ethoxy]ethoxy]propylamino]-4-oxo-butanoyl; γGlu = O=C(O)[C@H](CCC(=O)[*:2])N[*:1]; Stearoyl = CCCCCCCCCCCCCCCCCC(=O)*; Palmitoyl = CCCCCCCCCCCCCCCC(=O)*; αMeK = C[C@](N)(CCCCN)C(=O)O; hLys = NCCCCC[C@H](N)C(=O)O; AEEA = NCCOCCOCC(=O)O; Aib = CC(C)(N)C(=O)O

T1: human RXFP1 (human, UniProt Q9HBX9 1-757)
T1 sequence (looked up): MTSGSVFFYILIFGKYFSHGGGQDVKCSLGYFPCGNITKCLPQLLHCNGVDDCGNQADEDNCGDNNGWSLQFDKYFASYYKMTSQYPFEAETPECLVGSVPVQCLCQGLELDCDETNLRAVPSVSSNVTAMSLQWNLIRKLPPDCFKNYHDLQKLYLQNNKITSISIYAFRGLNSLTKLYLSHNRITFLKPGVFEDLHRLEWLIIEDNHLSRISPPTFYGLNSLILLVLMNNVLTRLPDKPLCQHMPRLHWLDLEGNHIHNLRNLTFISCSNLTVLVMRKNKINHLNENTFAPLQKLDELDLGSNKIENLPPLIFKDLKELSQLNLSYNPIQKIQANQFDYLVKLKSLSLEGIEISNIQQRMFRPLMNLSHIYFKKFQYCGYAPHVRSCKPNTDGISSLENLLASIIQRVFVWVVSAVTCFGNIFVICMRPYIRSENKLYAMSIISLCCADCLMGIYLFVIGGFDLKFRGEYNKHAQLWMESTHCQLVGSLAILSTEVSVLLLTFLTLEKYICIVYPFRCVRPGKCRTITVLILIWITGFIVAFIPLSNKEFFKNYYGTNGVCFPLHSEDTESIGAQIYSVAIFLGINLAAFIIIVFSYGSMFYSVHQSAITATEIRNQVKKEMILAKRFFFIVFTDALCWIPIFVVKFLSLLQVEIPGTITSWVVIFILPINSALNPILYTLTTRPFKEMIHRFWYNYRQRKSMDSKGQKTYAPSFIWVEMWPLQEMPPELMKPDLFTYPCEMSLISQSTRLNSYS


Molecular target: T1, human RXFP1
Experiment: cell-based or functional assay

Row | Binder | EC50 (nM), OVCAR 5 cells (cAMP) [nM] | EMax, OVCAR 5 cells (cAMP) [%]
1 | Ac-LEGREKVRAK(Ac)I[Aib][Aib]EGK([TTDS-TTDS-γGlu-γGlu-γGlu-Palmitoyl])STWS[dK]RKK(Ac)-NH2 [Relaxin peptide analogue of SEQ ID NO: 18] | 1.54 | 92
2 | Ac-LEGRERVRAK(Ac)I[Aib][Aib]EGK([TTDS-TTDS-TTDS-γGlu-γGlu-γGlu-Palmitoyl])STWS[Aib]RRK(Ac)-NH2 [Relaxin peptide analogue of SEQ ID NO: 31] | 0.19 | 94
3 | Ac-LEGREKVRAK(Ac)I[Aib][Aib]EGK([AEEA-AEEA-AEEA-AEEA-γGlu-γGlu-γGlu-Stearoyl])STWS[Aib]RKK(Ac)-NH2 (SMILES CCCCCCCCCCCCCCCCCC(=O)N[C@@H](CCC(=O)N[C@@H](CCC(=O)N[C@@H](CCC(=O)NCCOCCOCC(=O)NCCOCCOCC(=O)NCCOCCOCC(=O)NCCOCCOCC(=O)NCCCC[C@H](NC(=O)CNC(=O)[C@H](CCC(=O)O)NC(=O)C(C)(C)NC(=O)C(C)(C)NC(=O)[C@@H](NC(=O)[C@H](CCCCNC(C)=O)NC(=O)[C@H](C)NC(=O)[C@H](CCCNC(=N)N)NC(=O)[C@@H](NC(=O)[C@H](CCCCN)NC(=O)[C@H](CCC(=O)O)NC(=O)[C@H](CCCNC(=N)N)NC(=O)CNC(=O)[C@H](CCC(=O)O)NC(=O)[C@H](CC(C)C)NC(C)=O)C(C)C)[C@@H](C)CC)C(=O)N[C@@H](CO)C(=O)N[C@H](C(=O)N[C@@H](Cc1c[nH]c2ccccc12)C(=O)N[C@@H](CO)C(=O)NC(C)(C)C(=O)N[C@@H](CCCNC(=N)N)C(=O)N[C@@H](CCCCN)C(=O)N[C@@H](CCCCNC(C)=O)C(N)=O)[C@@H](C)O)C(=O)O)C(=O)O)C(=O)O) [Relaxin peptide analogue of SEQ ID NO: 21] | 0.65 | 93
4 | Ac-LEGREKVRAK(Ac)I[Aib][Aib]EGK([TTDS-TTDS-TTDS-γGlu-γGlu-γGlu-Stearoyl])STWS[Aib]RKK(Ac)-NH2 [Relaxin peptide analogue of SEQ ID NO: 20] | 0.15 | 96
5 | Ac-LEGRERVRAK(Ac)I[Aib][Aib]EGK([TTDS-TTDS-TTDS-γGlu-γGlu-γGlu-Palmitoyl])STFS[αMeK]RAK(Ac)-NH2 [Relaxin peptide analogue of SEQ ID NO: 27] | 1.8 | 98
6 | LEGREKVRAKIXXEGKSTFSKRAK (Ac-L-E-G-R-E-K-V-R-A-K(Ac)-I-Aib-Aib-E-G-K(PEG2DGA-PEG2DGA-PEG2DGA-gE-gE-gE-Stea)-S-T-F-S-Mly-R-A-K(Ac)-NH2) [Relaxin peptide analogue of SEQ ID NO: 32] | 0.1 | 97
7 | Ac-LEGREKVRAK(Ac)I[Aib][Aib]EGK([TTDS-TTDS-TTDS-γGlu-γGlu-γGlu-Palmitoyl])STFS[αMeK]RAK(Ac)-NH2 [Relaxin peptide analogue of SEQ ID NO: 3] | 0.34 | 97
8 | Ac-LEGREKVRAK(Ac)I[Aib][Aib]EGK([AEEA-AEEA-AEEA-γGlu-γGlu-γGlu-Palmitoyl])STWS[Aib]RKK(Ac)-NH2 (SMILES CCCCCCCCCCCCCCCC(=O)N[C@@H](CCC(=O)N[C@@H](CCC(=O)N[C@@H](CCC(=O)NCCOCCOCC(=O)NCCOCCOCC(=O)NCCOCCOCC(=O)NCCCC[C@H](NC(=O)CNC(=O)[C@H](CCC(=O)O)NC(=O)C(C)(C)NC(=O)C(C)(C)NC(=O)[C@@H](NC(=O)[C@H](CCCCNC(C)=O)NC(=O)[C@H](C)NC(=O)[C@H](CCCNC(=N)N)NC(=O)[C@@H](NC(=O)[C@H](CCCCN)NC(=O)[C@H](CCC(=O)O)NC(=O)[C@H](CCCNC(=N)N)NC(=O)CNC(=O)[C@H](CCC(=O)O)NC(=O)[C@H](CC(C)C)NC(C)=O)C(C)C)[C@@H](C)CC)C(=O)N[C@@H](CO)C(=O)N[C@H](C(=O)N[C@@H](Cc1c[nH]c2ccccc12)C(=O)N[C@@H](CO)C(=O)NC(C)(C)C(=O)N[C@@H](CCCNC(=N)N)C(=O)N[C@@H](CCCCN)C(=O)N[C@@H](CCCCNC(C)=O)C(N)=O)[C@@H](C)O)C(=O)O)C(=O)O)C(=O)O) [Relaxin peptide analogue of SEQ ID NO: 19] | 11.5 | 94
9 | Ac-LEGREFVRAK(Ac)I[Aib][Aib]EGK([TTDS-TTDS-TTDS-γGlu-γGlu-γGlu-Palmitoyl])STFS[αMeK]RAK(Ac)-NH2 [Relaxin peptide analogue of SEQ ID NO: 24] | 36.4 | 100
10 | Ac-LEGREKVR[Aib]K(Ac)I[Aib][Aib]EGK([TTDS-TTDS-TTDS-γGlu-γGlu-γGlu-Palmitoyl])STFS[αMeK]RAK(Ac)-NH2 [Relaxin peptide analogue of SEQ ID NO: 29] | 1.6 | 88

Further lines, results first:

Row | EC50 (nM), OVCAR 5 cells (cAMP) [nM] | EMax, OVCAR 5 cells (cAMP) [%] | Binder
11 | 11.1 | 92 | Ac-LEGRELVRAK(Ac)I[Aib][Aib]EGK([TTDS-TTDS-TTDS-γGlu-γGlu-γGlu-Palmitoyl])STFS[αMeK]RAK(Ac)-NH2 [Relaxin peptide analogue of SEQ ID NO: 23]
12 | 28.7 | 100 | Ac-LEGREQVRAK(Ac)I[Aib][Aib]EGK([TTDS-TTDS-TTDS-γGlu-γGlu-γGlu-Palmitoyl])STFS[αMeK]RAK(Ac)-NH2 [Relaxin peptide analogue of SEQ ID NO: 25]
13 | 1 | 92 | LEGREKVRAKIXXEGKSTFSKRAK (Ac-L-E-G-R-E-K-V-R-A-K(Ac)-I-Aib-Aib-E-G-K(PEG2DGA-PEG2DGA-PEG2DGA-gE-gE-gE-Palm)-S-T-F-S-Mly-R-A-K(Ac)-NH2) [Relaxin peptide analogue of SEQ ID NO: 22]
14 | 0.43 | 96 | Ac-LEGREKVRAK(Ac)I[Aib][Aib]EGK([AEEA-AEEA-AEEA-AEEA-γGlu-γGlu-γGlu-Stearoyl])STFS[αMeK]RAK(Ac)-NH2 (SMILES CCCCCCCCCCCCCCCCCC(=O)N[C@@H](CCC(=O)N[C@@H](CCC(=O)N[C@@H](CCC(=O)NCCOCCOCC(=O)NCCOCCOCC(=O)NCCOCCOCC(=O)NCCOCCOCC(=O)NCCCC[C@H](NC(=O)CNC(=O)[C@H](CCC(=O)O)NC(=O)C(C)(C)NC(=O)C(C)(C)NC(=O)[C@@H](NC(=O)[C@H](CCCCNC(C)=O)NC(=O)[C@H](C)NC(=O)[C@H](CCCNC(=N)N)NC(=O)[C@@H](NC(=O)[C@H](CCCCN)NC(=O)[C@H](CCC(=O)O)NC(=O)[C@H](CCCNC(=N)N)NC(=O)CNC(=O)[C@H](CCC(=O)O)NC(=O)[C@H](CC(C)C)NC(C)=O)C(C)C)[C@@H](C)CC)C(=O)N[C@@H](CO)C(=O)N[C@H](C(=O)N[C@@H](Cc1ccccc1)C(=O)N[C@@H](CO)C(=O)N[C@@](C)(CCCCN)C(=O)N[C@@H](CCCNC(=N)N)C(=O)N[C@@H](C)C(=O)N[C@@H](CCCCNC(C)=O)C(N)=O)[C@@H](C)O)C(=O)O)C(=O)O)C(=O)O) [Relaxin peptide analogue of SEQ ID NO: 26]
15 | 0.21 | 89 | Ac-LEGREKVRAK(Ac)I[Aib][Aib]EGK([TTDS-TTDS-TTDS-γGlu-γGlu-γGlu-Stearoyl])STWS[αMeK]RAK(Ac)-NH2 [Relaxin peptide analogue of SEQ ID NO: 30]
16 | 0.62 | 88 | Ac-LEGRE[hLys]VRAK(Ac)I[Aib][Aib]EGK([TTDS-TTDS-TTDS-γGlu-γGlu-γGlu-Palmitoyl])STFS[αMeK]RAK(Ac)-NH2 [Relaxin peptide analogue of SEQ ID NO: 28]
